According to the Human Domainome abundance scans (Beltran et al. 2025):
± gives the uncertainty stated by the source.

B1: Far upstream element-binding protein 1, residues 98 to 169; numbered along this chain, Q96AE4 (parent)
chain: RSVMTEEYKVPDGMVGFIIGRGGEQISRIQQESGCKIQIAPDSGGLPERSCMLTGTPESVQSAKRLLDQIVE

Variants of: B1
Test: abundance fitness (aPCA) (normalised: wild type 0, dead -1); higher = more abundant; growth selection in yeast, the domain comes from the species named
Conditions: Homo sapiens

| Variant | abundance fitness |
| --- | --- |
| V10Q | -0.581 ± 0.037 |
| V10W | -0.193 ± 0.03 |
| L53W | -1.03 ± 0.054 |
| L53S | -0.899 ± 0.047 |
| M14V | -0.01 ± 0.027 |
| M14F | -0.016 ± 0.044 |
| M14Y | -0.025 ± 0.05 |
| M14S | -0.026 ± 0.026 |
| M14L | -0.013 ± 0.025 |
| M14A | -0.007 ± 0.028 |
| C35E | -0.835 ± 0.044 |
| C35V | -0.087 ± 0.026 |
| C35T | -0.172 ± 0.03 |
| C35R | -0.935 ± 0.031 |
| C35F | -1.1 ± 0.07 |
| C35W | -1.19 ± 0.053 |
| C35L | -0.554 ± 0.027 |
| C35N | -0.955 ± 0.074 |
| G22H | -0.021 ± 0.052 |
| G22I | -0.09 ± 0.048 |
| G22K | -0.001 ± 0.037 |
| G22D | 0.005 ± 0.045 |
| G22Y | -0.137 ± 0.045 |
| G22P | -0.151 ± 0.035 |

| Variant | abundance fitness |
| --- | --- |
| G23M | -0.037 ± 0.04 |
| G23R | -0.044 ± 0.024 |
| G23Q | -0.062 ± 0.034 |
| G23A | -0.045 ± 0.029 |
| G23F | -0.179 ± 0.052 |
| G23W | -0.101 ± 0.031 |
| G23S | -0.061 ± 0.029 |
| G23N | -0.055 ± 0.059 |
| G23D | -0.051 ± 0.045 |
| E72N | -0.11 ± 0.053 |
| E72F | -0.111 ± 0.064 |
| E72V | 0.051 ± 0.038 |
| G13M | -0.034 ± 0.036 |
| G13P | -0.019 ± 0.03 |
| G13I | -0.034 ± 0.047 |
| G13Y | 0.012 ± 0.044 |
| C51V | 0.006 ± 0.027 |
| C51G | -0.417 ± 0.024 |
| C51K | -1.12 ± 0.087 |
| C51L | -0.019 ± 0.03 |
| C51R | -0.984 ± 0.037 |
| C51A | -0.06 ± 0.028 |
| C51M | 0.017 ± 0.036 |
| C51P | -0.597 ± 0.042 |

| Variant | abundance fitness |
| --- | --- |
| G45D | -0.002 ± 0.036 |
| G45W | -0.166 ± 0.036 |
| G45K | -0.086 ± 0.042 |
| G45L | -0.115 ± 0.031 |
| G45Q | -0.046 ± 0.042 |
| G45I | -0.14 ± 0.057 |
| G45V | -0.111 ± 0.029 |
| G45Y | -0.095 ± 0.048 |
| E48Y | 0.02 ± 0.046 |
| E48W | 0.004 ± 0.031 |
| E48A | -0.041 ± 0.03 |
| E48P | -0.088 ± 0.038 |
| E48Q | -0.085 ± 0.041 |
| E48L | 0.001 ± 0.029 |
| D12I | -0.038 ± 0.051 |
| D12A | 0.019 ± 0.026 |
| D12L | -0.064 ± 0.026 |
| D12F | -0.066 ± 0.047 |
| S59Y | -0.376 ± 0.05 |
| S59L | -0.401 ± 0.029 |
| S59M | -0.089 ± 0.034 |
| R28F | -0.168 ± 0.05 |
| R28V | -0.108 ± 0.028 |
| R28T | -0.068 ± 0.035 |

| Variant | abundance fitness |
| --- | --- |
| R28E | -0.058 ± 0.03 |
| R28Y | -0.131 ± 0.044 |
| R28A | -0.066 ± 0.028 |
| G16N | -0.037 ± 0.043 |
| G16M | -0.098 ± 0.036 |
| G16T | -0.054 ± 0.033 |
| G16D | 0.018 ± 0.039 |
| G16Y | -0.118 ± 0.058 |
| V60K | -0.223 ± 0.036 |
| V60Q | -0.174 ± 0.042 |
| V60L | -0.009 ± 0.03 |
| V60I | 0.025 ± 0.045 |
| V60A | -0.307 ± 0.03 |
| L66S | -0.029 ± 0.026 |
| L66I | -0.045 ± 0.039 |
| S27N | -0.042 ± 0.051 |
| S27A | 0.024 ± 0.027 |
| S27R | 0.014 ± 0.024 |
| S27I | -0.055 ± 0.057 |
| S27M | -0.025 ± 0.038 |
| S27Q | 0.027 ± 0.04 |
| M52H | -0.025 ± 0.058 |
| M52K | -0.045 ± 0.034 |
| M52P | -0.625 ± 0.046 |

| Variant | abundance fitness |
| --- | --- |
| M4C | 0.01 ± 0.032 |
| M4K | -0.053 ± 0.034 |
| M4I | 0.015 ± 0.035 |
| G55S | -0.44 ± 0.037 |
| G55T | -1.32 ± 0.12 |
| D42N | -0.031 ± 0.044 |
| D42W | -0.089 ± 0.032 |
| D42T | -0.053 ± 0.034 |
| D42C | -0.015 ± 0.041 |
| D42H | -0.04 ± 0.053 |
| D42E | 0.014 ± 0.031 |
| V3E | 0.004 ± 0.029 |
| V3T | -0.005 ± 0.031 |
| V3S | -0.087 ± 0.027 |
| V3Y | 0.003 ± 0.041 |
| V3P | -0.092 ± 0.033 |
| I18K | -0.264 ± 0.034 |
| I18G | -0.206 ± 0.023 |
| I18R | -0.324 ± 0.024 |
| I18A | -0.189 ± 0.026 |
| I18T | -0.175 ± 0.028 |
| I18M | -0.049 ± 0.033 |
| L46R | -0.006 ± 0.025 |
| L46D | -0.006 ± 0.046 |

| Variant | abundance fitness |
| --- | --- |
| L46G | -0.01 ± 0.025 |
| L46Y | -0.093 ± 0.049 |
| L46P | -0.124 ± 0.037 |
| I37H | -0.775 ± 0.094 |
| I37L | -0.087 ± 0.028 |
| I37C | -0.129 ± 0.042 |
| I37N | -0.848 ± 0.083 |
| I37Q | -0.911 ± 0.067 |
| I37D | -0.873 ± 0.07 |
| I37P | -0.679 ± 0.042 |
| I37F | -0.25 ± 0.055 |
| V15H | -0.135 ± 0.044 |
| V15W | -0.084 ± 0.029 |
| V15S | -0.059 ± 0.028 |
| V15Y | -0.144 ± 0.047 |
| P11F | -0.206 ± 0.046 |
| P11Q | -0.099 ± 0.032 |
| P11I | -0.159 ± 0.038 |
| P11A | -0.081 ± 0.025 |
| P11D | -0.052 ± 0.034 |
| P11S | -0.112 ± 0.025 |
| K9S | -0.108 ± 0.024 |
| K9A | -0.114 ± 0.024 |
| K9T | -0.091 ± 0.027 |

| Variant | abundance fitness |
| --- | --- |
| K9D | -0.181 ± 0.032 |
| E58R | -0.08 ± 0.024 |
| E58V | -0.075 ± 0.027 |
| E58T | -0.038 ± 0.032 |
| E58K | -0.035 ± 0.034 |
| E58W | -0.125 ± 0.029 |
| E58D | 0.03 ± 0.04 |
| E58I | -0.069 ± 0.043 |
| S33A | -0.068 ± 0.027 |
| S33M | -0.414 ± 0.036 |
| S33W | -0.59 ± 0.035 |
| S33P | -0.865 ± 0.051 |
| S33T | -0.034 ± 0.032 |
| S33G | -0.522 ± 0.026 |
| D68A | 0.004 ± 0.026 |
| D68W | -0.042 ± 0.032 |
| D68G | 0.014 ± 0.023 |
| D68F | -0.052 ± 0.041 |
| K36M | -0.047 ± 0.039 |
| K36E | -0.025 ± 0.031 |
| K36F | -0.044 ± 0.053 |
| K36P | -0.666 ± 0.041 |
| K36D | -0.02 ± 0.042 |
